The supplement of paper PMC7877785
± gives the uncertainty stated by the source.

Experiment: self-splicing fitness, log relative to wild type (ln ratio); higher = more splicing; Tetrahymena group I intron in knt gene, E. coli kanamycin selection, DiMSum; sequences stand for … in CUCUCU…GGAGGGAAAAGUUAUCAGGCAUGCACCUGGUAGCUAGUCUUUAAACCAAUAGAUUGCAUCGGUUUAAAAGGCAAGACCGUCAAAUUGCGGGAAAGGGGUCAACAGCCGUUCAGUACCAAGUCUCAGGGGAAACUUUGAGAUGGCCUUGCAAAGGGUAUGGUAAUAAGCUGACGGACAUGGUCCUAACCACGCAGCCAAGUCCUAAGUCAACAGAUCUUCUGUUGAUAUGGAUGCAGUUCACAGACUAAAUGUCGGUCGGGGAAGAUGUAUUCUUCUCAUAAGAUAUAGUCGGACCUCUCCUUAAUGGGAGCUAGCGGAUGAAGUGAUGCAACACUGGAGCCGCUGGGAACUAAUUUGUAUGCGAAAGUAUAUUGAUUAGUUUUGGAGUACUCGUGGUCG
Procedure, shortened: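 Colonies from six replicate transformations of E. coli BL21(DE3) were pooled and amplicon-sequenced on an Illumina HiSeq 2500. The library placed an intron with all eight P1ex-region nucleotides randomised inside the knt kanamycin-resistance gene on pET-22b(+), and cells grew overnight at 37°C or 30°C on LB agar with or without 25 μg/mL kanamycin (plus 100 μg/mL carbenicillin, 50 μM IPTG, 0.2% rhamnose). Fitness is the DiMSum error-weighted combination of wild-type-normalised replicate fold changes, kanamycin versus none.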

Sequence	self-splicing fitness (ln) (30 °C)	self-splicing fitness (ln) (37 °C)
GGUGAGCAAUAUUACGUGAG	-2.73 ± 0.19	-1.76 ± 0.21
CCCGAGCAAUAUUACGAUAG	-3.17 ± 0.22	-2.02 ± 0.2
UCUUAGCAAUAUUACGGUUA	–	-2.37 ± 0.39
ACUGAGCAAUAUUACGGUAG	-3.12 ± 0.18	-1.03 ± 0.21
AAUCAGCAAUAUUACGUACG	-0.91 ± 0.056	-0.149 ± 0.075
UUUCAGCAAUAUUACGAGGA	-0.995 ± 0.18	-0.121 ± 0.22
GGCCAGCAAUAUUACGAACU	-0.359 ± 0.07	-0.12 ± 0.079
CAACAGCAAUAUUACGACAA	-3.37 ± 0.21	-2.29 ± 0.14
UCAUAGCAAUAUUACGUACA	-2.15 ± 0.14	-1.46 ± 0.12
UCGAAGCAAUAUUACGAACA	-0.799 ± 0.12	-0.112 ± 0.14
CUGCAGCAAUAUUACGUAAG	-0.296 ± 0.069	0.277 ± 0.08
CCAUAGCAAUAUUACGUACU	-4.18 ± 0.29	-2.3 ± 0.18
CUACAGCAAUAUUACGUGGG	-4.01 ± 0.2	-2.61 ± 0.15
UAAGAGCAAUAUUACGAAUA	-3.27 ± 0.26	-1.32 ± 0.19
CCGCAGCAAUAUUACGGAGG	-3.01 ± 0.16	-1.81 ± 0.18
GUGAAGCAAUAUUACGAUCC	-3.08 ± 0.31	0.244 ± 0.18
GUUUAGCAAUAUUACGCGUG	-1.1 ± 0.071	-0.806 ± 0.082
CUCCAGCAAUAUUACGCUCA	-2.97 ± 0.17	-2.31 ± 0.19
ACUAAGCAAUAUUACGGUCG	-2.89 ± 0.16	-1.47 ± 0.15
GCUCAGCAAUAUUACGUUCA	-0.466 ± 0.095	-0.686 ± 0.12
UAAUAGCAAUAUUACGUCAA	-2.33 ± 0.17	-1.77 ± 0.15
UCCAAGCAAUAUUACGCUAA	-2.62 ± 0.14	-1.36 ± 0.13
AGACAGCAAUAUUACGACCU	0.0744 ± 0.084	-0.545 ± 0.093
AGGCAGCAAUAUUACGAGCA	-1.96 ± 0.12	-0.225 ± 0.12
UCCAAGCAAUAUUACGCUAU	-3.98 ± 0.47	-2.26 ± 0.23
AUGAAGCAAUAUUACGUGGG	-2.55 ± 0.11	-2.67 ± 0.14

Sequence	self-splicing fitness (ln) (30 °C)	self-splicing fitness (ln) (37 °C)
ACGUAGCAAUAUUACGCAAG	-3.16 ± 0.24	-3.03 ± 0.22
GCCCAGCAAUAUUACGUUCG	-3.71 ± 0.18	-2.52 ± 0.22
GAGAAGCAAUAUUACGGGGC	-3.04 ± 0.19	-3.05 ± 0.23
CCGGAGCAAUAUUACGUACA	-3.36 ± 0.4	–
AGCAAGCAAUAUUACGAUCG	0.481 ± 0.09	-0.163 ± 0.12
CAAGAGCAAUAUUACGGCUA	-3.05 ± 0.31	-1.97 ± 0.22
CCGAAGCAAUAUUACGGGAG	-2.67 ± 0.18	-2.46 ± 0.23
GAGCAGCAAUAUUACGCCGG	-4.11 ± 0.39	-1.82 ± 0.3
UGUUAGCAAUAUUACGCAAA	-0.989 ± 0.22	-0.62 ± 0.32
AGCGAGCAAUAUUACGAUUA	-2.78 ± 0.23	-2.15 ± 0.23
CCCGAGCAAUAUUACGGCCU	-2.93 ± 0.33	–
AACUAGCAAUAUUACGCUUC	-3.74 ± 0.33	-1.68 ± 0.2
ACGGAGCAAUAUUACGAUAC	-2.35 ± 0.18	-1.98 ± 0.22
AUGCAGCAAUAUUACGAUAC	-2.96 ± 0.38	–
UACUAGCAAUAUUACGUUAA	-2.1 ± 0.18	-1.43 ± 0.18
ACACAGCAAUAUUACGCGGG	-2.43 ± 0.075	-1.69 ± 0.091
CAGCAGCAAUAUUACGCGUC	-3.68 ± 0.17	-1.24 ± 0.13
CAUCAGCAAUAUUACGGCAA	-3.37 ± 0.21	-2.1 ± 0.2
UCUGAGCAAUAUUACGUUAA	-3.47 ± 0.29	-0.512 ± 0.15
AUCUAGCAAUAUUACGUUUA	-2.26 ± 0.13	-2.3 ± 0.13
GCCUAGCAAUAUUACGUGCC	-3.38 ± 0.23	-2.08 ± 0.23
CUUGAGCAAUAUUACGGUCA	-1.65 ± 0.18	-3.58 ± 0.46
ACCGAGCAAUAUUACGUAUG	-3.56 ± 0.15	-2.28 ± 0.15
ACUAAGCAAUAUUACGUAUA	-1.9 ± 0.13	-0.679 ± 0.12
GAAAAGCAAUAUUACGUCCU	-0.216 ± 0.089	0.514 ± 0.12
AAAUAGCAAUAUUACGGACU	0.0218 ± 0.068	0.206 ± 0.091

Sequence	self-splicing fitness (ln) (30 °C)	self-splicing fitness (ln) (37 °C)
GAUAAGCAAUAUUACGCGGG	-2.89 ± 0.11	-2.34 ± 0.12
GGCUAGCAAUAUUACGAUCU	-0.432 ± 0.1	0.129 ± 0.12
GACGAGCAAUAUUACGGGAU	-4.33 ± 0.28	-1.74 ± 0.18
CGUAAGCAAUAUUACGCGAC	-3.62 ± 0.37	-2.63 ± 0.42
UAGUAGCAAUAUUACGGGGU	-3 ± 0.17	-2.89 ± 0.22
CGCAAGCAAUAUUACGGACA	-0.905 ± 0.14	-0.195 ± 0.14
GUAGAGCAAUAUUACGAUUG	-2.82 ± 0.16	-2.4 ± 0.2
UGAGAGCAAUAUUACGUGGA	-3.18 ± 0.28	-2.95 ± 0.47
UGCGAGCAAUAUUACGGCGA	-0.753 ± 0.099	-0.754 ± 0.11
AACCAGCAAUAUUACGAGGG	-3.27 ± 0.11	-2.1 ± 0.11
UUAGAGCAAUAUUACGAACA	-2.48 ± 0.19	-0.84 ± 0.19
UAGAAGCAAUAUUACGGCAA	-0.122 ± 0.075	-0.249 ± 0.088
AGCCAGCAAUAUUACGAGAG	-4.55 ± 0.27	-3.02 ± 0.21
UAAUAGCAAUAUUACGAGCG	-1.02 ± 0.1	-0.261 ± 0.15
CACCAGCAAUAUUACGCGCG	-0.00123 ± 0.053	0.499 ± 0.069
GUCGAGCAAUAUUACGUUGA	-2.98 ± 0.16	-3.79 ± 0.34
CCCAAGCAAUAUUACGCCAG	-2.9 ± 0.19	-3.07 ± 0.33
ACUCAGCAAUAUUACGAUGC	-0.776 ± 0.066	-0.0529 ± 0.075
GAUUAGCAAUAUUACGGCCU	-1.39 ± 0.12	-0.323 ± 0.098
GUUCAGCAAUAUUACGGCAU	-0.334 ± 0.067	0.567 ± 0.072
CUCAAGCAAUAUUACGAAAA	-3.12 ± 0.28	-2.65 ± 0.28
UUAGAGCAAUAUUACGCAAU	-2.21 ± 0.2	-1.52 ± 0.41
CCUUAGCAAUAUUACGGACA	-2.53 ± 0.32	–
AACUAGCAAUAUUACGGCCG	-0.725 ± 0.1	0.273 ± 0.13
